Test results published in publication PMC2423650 (Journal of Experimental Botany, 2008).

Molecular target: the molecule itself
Assay: SEC

Row | Protein | Kd [µM] | stoichiometry N | fold change of the dissociation constant against atToc33 [fold]
1 | atToc33-His (G-domain of atToc33, His-tagged) (domain or fragment, Arabidopsis thaliana, UniProt O23680 1-251, looked up) MGSLVREWVGFQQFPAATQEKLIEFFGKLKQKDMNSMTVLVLGKGGVGKSSTVNSLIGEQVVRVSPFQAEGLRPVMVSRTMGGFTINIIDTPGLVEAGYVNHQALELIKGFLVNRTIDVLLYVDRLDVYRVDELDKQVVIAITQTFGKEIWCKTLLVLTHAQFSPPDELSYETFSSKRSDSLLKTIRAGSKMRKQEFEDSAIAVVYAENSGRCSKNDKDEKALPNGEAWIPNLVKAITDVATNQRKAIHVD | 400 | 2 | –
2 | atToc33S/E-His (phospho-mimicking mutant of the atToc33 G-domain) (domain or fragment, Arabidopsis thaliana, UniProt O23680 1-251, looked up) MGSLVREWVGFQQFPAATQEKLIEFFGKLKQKDMNSMTVLVLGKGGVGKSSTVNSLIGEQVVRVSPFQAEGLRPVMVSRTMGGFTINIIDTPGLVEAGYVNHQALELIKGFLVNRTIDVLLYVDRLDVYRVDELDKQVVIAITQTFGKEIWCKTLLVLTHAQFSPPDELSYETFSSKRSDELLKTIRAGSKMRKQEFEDSAIAVVYAENSGRCSKNDKDEKALPNGEAWIPNLVKAITDVATNQRKAIHVD | – | 2 | ~10
